Test results from patent publication US20110206671A1, “AXON REGENERATION PROMOTER” (priority 2004, published 2011).

Assays:
[1] = test system: cerebellar granule neurons on rat RGM-like protein-expressing CHO cells; test: Axon growth assay, coculture of cerebellar granule neurons on RGM-CHO cells; format: cell-based; details: 10 μM Y27632 added, 24 hours, compared with control CHO cells
Experimental: Cerebellar granule cells from rat pups at 8 days post-natal (P8) were dissociated by trypsinization (0.25% trypsin in PBS, 37° C., 15 minutes); resuspended in serum-containing medium; triturated; and washed three times with PBS. For the coculture assay, neurons were plated onto a confluent monolayer of RGM-CHO cells or control CHO cells in chamber slides. 10 μM Y27632 (Welfide Corporation, Osaka) was added to the cultures to inhibit ROCK (Rho kinase). The cultures were grown for 24 hours in serum-free DMEM/F12 medium.
(§1) For the soluble RGM assay, confluent monolayers of RGM-CHO cells or control CHO cells were incubated in serum-free DMEM/F12 with or without 2.5 U/mL PI-PLC (phosphatidylinositol-specific phospholipase C, Sigma). After the culture were centrifuged for 10 minutes at 13000 g, floating cells were removed by collecting the supernatant. A portion of the supernatant was subjected to Western blot analysis. Neurons were plated on the conditioned media on poly-L-lysine-coated chamber slides and were incubated for 12 or 24 hours. For the axon assay, the cells were fixed with 4% (w/v) paraformaldehyde and immunostained with a monoclonal antibody that recognizes β-tubulin III protein specifically present in neurons (TuJ1, 1:1000, Covance Research Products, Inc., Denver, USA). The length of the longest neurite for each β-tubulin III-positive neuron was then measured.

[2] = test system: cerebellar granule neurons; test: Soluble RGM axon growth assay with conditioned media; format: cell-based, rat; details: medium obtained by PI-PLC treatment of RGM-like protein-expressing CHO cells; versus control CHO medium
Experimental: as §1

RhoA = test: Affinity precipitation of GTP-RhoA; format: cell-based, rat; details: cerebellar neurons from 7-day postnatal rats; 30 minutes after conditioned medium
Experimental: Cells were lysed in 50 mM Tris (pH 7.5) containing 1% Triton X-100 (TM), 0.5% sodium deoxycholate, 0.1% SDS, 500 mM NaCl, 10 mM MgCl2, 10 μg/mL leupeptin, and 10 μg/mL aprotinin.
The cell lysate was cleared by centrifugation at 4° C. for 10 minutes×13000 g, and the supernatant was incubated for 45 minutes at 4° C. with 20 μg GST-Rho binding domain of Rhotekin beads (TM, Upstate Biotech). The beads were washed four times with washing buffer (50 mM Tris (pH 7.5) containing 1% Triton X-100 (TM), 150 mM NaCl, 10 mM MgCl2, and 10 μg/mL each of leupeptin and aprotinin). Bound Rho was detected by Western blotting using monoclonal antibody against RhoA (Santa Cruz Biotech, Santa Cruz, Calif., USA).
The RhoA activity in neurons was measured. Conditioned medium was added to cerebellar neurons from 7-day postnatal rats and the RhoA activity was measured after 30 minutes had elapsed (FIG. 6).

Molecule | axon growth (average length of the longest axon of each neuron) [1] | axon growth of neurons treated with conditioned medium [2] | RhoA activity in neurons (GTP-RhoA) (RhoA)
CC(N)[C@H]1CC[C@H](C(=O)Nc2ccncc2)CC1 (stereo partly drawn) [Y27632] | axon growth was about the same as for the control |  | 
RGM-like protein: rat protein homologous to chicken repulsive guidance molecule, released from RGM-CHO cells by PI-PLC; SEQ ID NO: 4 (protein, listed as Rattus norvegicus) MGRGAGRSALGLWPTLAFLLCSFPAAISPCKILKCNSEFWSATSSGSHAPASDDVPEFCAALRTYALCTRRTARTCRGDLAYHSAVHGIEDLMSQHNCSKDGPTSQPRVRTLPPAGDSQERSDSPEICHYEKSFHKHSAAPNYTHCGLFGDPHLRTFTDHFQTCKVQGAWPLIDNNYLNVQVTNTPVLPGSAATATSKLTIIFKNFQECVDQKVYQAEMDELPSAFADGSKNGGDKHGANSLKITEKVSGQHVEIQAKYIGTTIVVRQVGRYLTFAVRMPEEVVNAVEDRDSQGLYLCLRGCPLNQQIDFQAFRANAESPRRPAAASPSPVVPETFPYETAVAKCKEKLPVEDLYYQACVFDLLTTGDVNFTLAAYYALEDGKMLHSNKDKLHLFERTRELPGAVAAAAFPLAPEMLPGTVTLLVLLPLFW |  | significantly inhibited | Rho activation was confirmed
